First the molecules themselves.
B1: TPR t1 (parent)
chain: GACCAAUCUGCCCUCAGAGCUCGAGAACAUCUUCGGAUGCAGAGGAGGCAGGCUUCGGUGGCGCGAUAGCGCCAACGUCCUCAACCUCCAAUGCAUCCCACCACAUGAUGAUGCCUGAAGAGCCUUGGUUUUUUG

In this data set the parent is B1. Kind of data set: polymerase ribozyme fitness, log enrichment relative to wild type (log ratio); higher = more active; in vitro selection for triplet polymerase activity. The method in brief: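 Fitness compares each genotype's enrichment to that of the wild type on a logarithmic scale, averaging replicates with inverse-variance weights. The logarithm is base 2. Enrichment came from Illumina sequencing of input and output libraries after one triplicate round of in vitro selection, which included frozen incubation at −7 °C, of PCR-built, transcribed mutant libraries of each subunit of a heterodimeric triplet polymerase ribozyme. Only genotypes with ≥10 input reads and ≥1 read per output were kept.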
C3U U9A C73A C79A U92G: the “polymerase ribozyme fitness (log ratio)” value is -3.38. As for C3U C22G C56U G117C, the “polymerase ribozyme fitness (log ratio)” value was -4.66. Then C3U C70A C86U A118U, with -1.74; and C3U C11A C15A A121U, with 0.659.

As to C3A U7A G57U G60C A83U A121C, the “polymerase ribozyme fitness (log ratio)” value was -1.26.

As for A2U C34A G60A G120U U125A U132A, the “polymerase ribozyme fitness (log ratio)” value is -3.85. Then C3A C72U G93U A111G, with -3.35; and C4A U7A G110U, with -2.4. Next, A2U C89G: -5.02. Then C4G A18C A46G A83U G128A, with -5.74; and A2U C40G C53G C72G, with -2.9. For the variant C3A U9A C12A A83G, the “polymerase ribozyme fitness (log ratio)” value was -2.57. Turning to C3U G60A C82A U106A G120A, the “polymerase ribozyme fitness (log ratio)” value is 0.775.

In the case of A2U C64U C115G C124U, the “polymerase ribozyme fitness (log ratio)” value is -4.43.

In the case of C3U C12A A75U U87C C124U, the “polymerase ribozyme fitness (log ratio)” value stood at 0.0602. Then C3A C13G C28A G51U G71C G110U, with -6.35. Then C4G C15A A16U C53A C72U U78C C115U, with -3.84. Next, C3U C12A A91U: -2.92; C3G C73G: -3.19. In the case of C3U U87A A103C, the “polymerase ribozyme fitness (log ratio)” value is -5.54. With C4A C80A, the “polymerase ribozyme fitness (log ratio)” value was -5.24. Next, C4A G36A: -2.02; C3U C73U: -0.279. Then A2U G120U, with -1.32. For A2U G120C, the “polymerase ribozyme fitness (log ratio)” value was -1.67. C3G U106C C123G: the “polymerase ribozyme fitness (log ratio)” value was -1.58. Next, A2U G61C: -3.94; A2U C8A G19U A24U A26U U33C A108G A111C A121G: -7.47; C3U A43C U87G: -3.

Consider C3U U92C, for which the “polymerase ribozyme fitness (log ratio)” value is -1.23. With C3U U21A A41G G48U C101G C124G, the “polymerase ribozyme fitness (log ratio)” value was -1.96. In the case of A2U G63U, the “polymerase ribozyme fitness (log ratio)” value was -4.25. On to C3A G61A C79U, for which the “polymerase ribozyme fitness (log ratio)” value was -1.27. Then C4A G93A G120C U126G, with -1.92; and C3G U112A, with -0.0942; and C3U C11G G63C C86U U109G U131A, with -5.05. For C3A A6C A91U U125A, the “polymerase ribozyme fitness (log ratio)” value was -3.02. On to A2U C11U A27U G48U C64A C99G G113C, for which the “polymerase ribozyme fitness (log ratio)” value was -6.93. On to C4A G120U, for which the “polymerase ribozyme fitness (log ratio)” value is -1.6. As for A2U C64U A83G A111C, the “polymerase ribozyme fitness (log ratio)” value was -4.94. Next, C3U G110C: -4.17; C3U C8G A29G: -1.43; C3G C70G: -4.26. Turning to A2U G93U, the “polymerase ribozyme fitness (log ratio)” value was -2.62. For the variant C3A U9A C28U C53A C94A, the “polymerase ribozyme fitness (log ratio)” value was -4.65. Then C3A C124G, with 1.55. Regarding C3U C62G G113A C114G A121U, the “polymerase ribozyme fitness (log ratio)” value was -4.51. Then C4G C13U U21C C62G G120U, with -2.48; and C3A U81G C115U, with -6.22; and C3U C15U U106G, with -3.3. Then C3U C4A G51C C53A G71U A103G C114U, with -5.71.

In the case of C3A G39A G113A C124U, the “polymerase ribozyme fitness (log ratio)” value is -3.14. Then C3A C34U C53A C89A C123G, with -5.9; and C3U A27C U130C, with -2.28; and C4G C8G C11A U14G C124U, with -0.919.

For the variant C4G A66G C115A, the “polymerase ribozyme fitness (log ratio)” value was -2.94. Next, C3A C89U: -1.82; C4A A27G A75G G120U: -4.55; C3U C20G G113A: -1.16.

Turning to A2U C12A C49U, the “polymerase ribozyme fitness (log ratio)” value was -3.6. Then C3A G52U, with -1.75; and C3A G52U C123A, with -0.759; and A2U U21G C53U G58C C72U U129A, with -1.46.

With A2U C12A A43U G120A, the “polymerase ribozyme fitness (log ratio)” value was -1.89. As for C3A G117C, the “polymerase ribozyme fitness (log ratio)” value was -3.87. Next, A2U C8G C101G: -2.67; C3U U7G C20U U21G C73U G110U C124G: -4.5; C3G C64U G69A: -2.41.

With C3A G17U A18C A24U U32G C40G G42U A43G U109C, the “polymerase ribozyme fitness (log ratio)” value is -6.6. As to C3U C20G, the “polymerase ribozyme fitness (log ratio)” value was -3.47. Next, A2U G71U: -2.05; C4A A46U C53G U130C: -2.39; C3U G77A A121U: 2.03. Next, C4A G69U A74G A90U U106A G117C: -4.9; C4G C13U U33G G39U G44A C82U U112A: -4.58; C3U C4A: -1.77. Next, A2U C73U: -2.69. In the case of C4A C72G G77A G120A, the “polymerase ribozyme fitness (log ratio)” value was -1.74. Then C3U G69U G113C, with -1.33.

Regarding C3U C79U, the “polymerase ribozyme fitness (log ratio)” value is -0.681. For A2U C11U C22A A41C G71U C82A C88U A121G, the “polymerase ribozyme fitness (log ratio)” value is -6.23.

In the case of C3U U38G C62U G120A A121G G122A C123G U125C, the “polymerase ribozyme fitness (log ratio)” value was -0.77. Next, C4A C8G G36U G45U G69C U78A C114U: -5.25; C3A U130A: -2.53; A2U G10U C15G G69U U106A: -0.732.

Turning to C3A C72A A111C, the “polymerase ribozyme fitness (log ratio)” value was -1.3. Regarding C4A C124A, the “polymerase ribozyme fitness (log ratio)” value is -0.256.

With C3A C40A A91C G117C A119U, the “polymerase ribozyme fitness (log ratio)” value is -5.83. Then C3A G48U G71C C101A G127A, with -3.71; and C3A C115A, with -1.99. Next, C3G C82A: -2.49; C3G G36U C72G C86A C99G U112G U129C U134G: -5.02. In the case of C4G C11G G39A, the “polymerase ribozyme fitness (log ratio)” value was -1.72. Then A2U C49U, with -3.77; and C3U A43C A50G C73U, with -2.2; and C3U A84U, with -0.78. As for A2U C13G G60U C85A, the “polymerase ribozyme fitness (log ratio)” value is -4.99. Next, C3U U14G A26U G60U C123A: -4.1; C3G U109G: -5.75. For the variant C4G A43U A46G G113A, the “polymerase ribozyme fitness (log ratio)” value is -3.76. Next, C3U C11G U21G G113U G127A: -2.58. Then C3A C8A C11G C22A G45U C88G, with -5.16; and C3A G120U, with -0.479; and A2U C3G C4U C72U G77A U92G A118U C123G G128A, with -3.1. Then A2U U7C G44C G52C C56A, with -4.24. As to C4G C8G C53A U112G G120A, the “polymerase ribozyme fitness (log ratio)” value was -2.51.

With C3U G10U A29G G44U G57C C82U A105U G120C, the “polymerase ribozyme fitness (log ratio)” value was -6.47. Next, C3G A95G C101A A111C: -2.16. Then C3A G69A, with -3.74; and C3A U116C, with -2.44; and C4A C80A C101U A121G, with -1.22. Then C4A C13A G17A C22U A27G A46C G52C, with -6.56; and C3U C56A A68G G120C, with -3.32; and C3G U96A, with -3.4. With C4A U9A A43U C56A A83C U126A, the “polymerase ribozyme fitness (log ratio)” value is -4.76. C4A G61C: the “polymerase ribozyme fitness (log ratio)” value is -3.08. Then C3U C72G, with -0.854; and A2U U38A G63A C88U, with -4.16; and C4A C73A U81A, with -3.04. For C4G C12A C40A C72U G77U, the “polymerase ribozyme fitness (log ratio)” value is -3.43.

As for C4G C13U C53U A68G C115G A121U, the “polymerase ribozyme fitness (log ratio)” value is -1.92.

On to A2U C11G G120A U132A, for which the “polymerase ribozyme fitness (log ratio)” value turned out to be 0.742. Next, A2U C8A A41U C101U U130G: -1.84; C3U C8A C79U A121C: 1.18.

For the variant C3U G39U C73A C98U, the “polymerase ribozyme fitness (log ratio)” value was -2.51. Next, C3U C11U U87A C124U: 0.336; C4G A37G C53U A111C: -1.68. As for C3G C70G C80U G128C, the “polymerase ribozyme fitness (log ratio)” value is -1.99. Next, A2U C4A C56G U78C C79G C101U: -3.31; C3U U130G: -0.624; C3G U7G C88G C114U: -2.56. C3U C79G C97G A121G: the “polymerase ribozyme fitness (log ratio)” value is -5.3. In the case of C3A A74U G120U U125A, the “polymerase ribozyme fitness (log ratio)” value was -0.657. Regarding A2U C104U, the “polymerase ribozyme fitness (log ratio)” value is -1.41. On to C3G G93A, for which the “polymerase ribozyme fitness (log ratio)” value was -2.07. Then C3A A37U C114U, with -3.95. Next, C4G C8A C20G A111C C123G: -4.96. Next, C4A G52C A74C: -2.47. Regarding C3U G39A U54G G120C, the “polymerase ribozyme fitness (log ratio)” value was found to be 0.423. Next, C3G G120A: -1.23; A2U U14A G69U C82U A119C G120U: -2.15; C4A A46U C88U U92A U116C: -6.04. For C3A G110C C123G, the “polymerase ribozyme fitness (log ratio)” value was -4.82. Then C4A G36U C70U, with -3.69; and C3U C4A U14G U32G A37G A46C C49A C53U C114G U116C, with -5.66. On to C3A A43U, for which the “polymerase ribozyme fitness (log ratio)” value was -2.69.

For C3A G52U C72A C89G C104A G113U A119U C123G, the “polymerase ribozyme fitness (log ratio)” value was -5.02. On to C3A G39U C114A U125G, for which the “polymerase ribozyme fitness (log ratio)” value was -3.98. Then C4G C13G, with -3.83; and C4G C13A, with -3.23. Then C3U C82G, with -0.798; and C3G C8G G10A A18U A41G G69C A121G, with -4.57. For A2U C20U G63C C89A A111C C123A, the “polymerase ribozyme fitness (log ratio)” value is -4.79. For the variant C4G C12A U87G C115U, the “polymerase ribozyme fitness (log ratio)” value was -3.74. Next, C3A C99U: -3.8. Next, C3A U14G A119U G120A: -1.62. Then C3U C11U A37U C53U, with -0.631. On to A2U C72A A83U C123G U126A, for which the “polymerase ribozyme fitness (log ratio)” value was -0.343. Next, C3U C34G C73U C123U: -4.72. Next, C3U C62G U106A G113A: -4.93; C4A A18G C40A C114A A119G: -3.79; A2U G17C A26U G39A U59G G61U A83G C115U: -6.19. Next, C3U A41C G42A U78C U92G: -3.33; A2U G57U G117U: -5.98. Turning to C3A G71U C115G A118U, the “polymerase ribozyme fitness (log ratio)” value is -4.97. Then C3A C97U, with -2.33. Next, A2U C3G G63A: -3.64.

These data come from the RNAGym collection of RNA variant scans (doi:10.1073/pnas.2313332121).
